Patent US20080254032A1 (published 2008)
Substitutions are numbered along the chain they refer to.

T1: human M-CSF (human, UniProt P09603 33-190)
T1 chain: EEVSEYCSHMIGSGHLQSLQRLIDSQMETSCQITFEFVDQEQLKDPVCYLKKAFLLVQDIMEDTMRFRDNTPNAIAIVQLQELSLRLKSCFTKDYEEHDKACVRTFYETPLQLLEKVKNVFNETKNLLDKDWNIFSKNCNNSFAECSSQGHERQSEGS

B1: monoclonal antibody 2.7.3 (antibody, human IgG4, kappa, V domains shown)
VH: QVQLVESGGGVVQPGRSLRLSCAASGFTFSSYGMHWVRQAPGKGLEWVAFIWYDGSNKYYADSVKGRFTISRDNSKNTLYLQMNSLRAEDTAVYYCARGYRVYFDYWGQGTLVTVSS
VL: DIQMTQSPSSVSASVGDRVTITCRASQDISSWLAWYQRKPGKAPKLQIYAASSLESGVPSRFNGSGSGTDFTLSISSLQPEDFATYYCQQTNSFPLTFGGGTKVEIKR
B2: monoclonal antibody 252 (antibody, human IgG2, kappa, V domains shown)
VH: QVQLVESGGGLVKPGGSLRLSCAASGFTFSDYYMSWIRQAPGKGLEWISYISGSGSTIYYADSVKGRFTISRDNAKNSLYLQMNSLRAEDTAVYHCARALGGMDVWGQGTTVTVSS
VL: DIQMTQSPSSLSASVGDRVTITCRASQSISGFLNWYQQKPGKAPKLLIYATSSLQSGVPFRFSGSGSGTDFTLTISSLQPEDFATYYCQQSYSVPFTFGPGTKVDIKR
B3: monoclonal antibody 88 (antibody, human IgG2, kappa, V domains shown)
VH: EVQLVESGGGLVQPGGSLRLSCAASGFTFSSYWMSWVRQAPGKGLEWVANIKQDGSEKYYVDSVKGRFTISRDNAKNSLYLQMNSLRAEDTAVYYCAPGIAAAGRAYWGQGTLVTVSS
VL: B2 VL with A25P, S28D, G31S, F32Y, T51A, F60L, V94T
B4: monoclonal antibody 3.8.3 (antibody, human IgG2, kappa, V domains shown)
VH: QVQLVESGGGLVKPGGSLRLSCAASGFTFSDYYMSWIRQAPGKGLEWFSYISSSGSTIYYADSVKGRFTISRDNAKNSLSLQMNSLRAEDTAVYYCARGLTGDYWGQGTLVTVSS
VL: DIQMTQSPSSVSASVGDRVTISCRASQDISGWLAWYQQKPGKAPKLLISATSSLHSGVPSRFSGSGSGTDFTLTISSLQPEDFATYYCQQTNSFPFTFGPGTKVDIKR
B5: monoclonal antibody 1.120.1 (antibody, human IgG2, kappa, V domains shown)
VH: QVQLVQSGAEVKKPGASVKVSCKASGYTFTSYGISWVRQAPGQGLEWMGWISAYNGNTNYAQKLQDRVTMTTDTSTTTAYMELRSLRSDDTAVYYCARRAYGANFFDYWGQGTLVTVSS
VL: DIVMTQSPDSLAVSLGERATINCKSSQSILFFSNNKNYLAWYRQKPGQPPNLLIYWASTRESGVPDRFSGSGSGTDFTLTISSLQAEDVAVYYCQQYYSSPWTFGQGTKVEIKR
B6: monoclonal antibody 100 (antibody, human IgG2, kappa, V domains shown)
VH: EVQLLESGGGLVQPGGSLRLSCAASGFTFSSYAMSWVRQAPGKGLEWVSAISGRGGRTYFADSVKGRFTISRDNSKNTLYLQMNSLRAEDTAVYFCAVEGYSGRYGFFDYWGQGTLVTVSS
VL: EIVMTQSPATLSVSPGERATLSCRASQSVSSNLAWYQQKPGQAPRLLIYGASTRASGIPDRISGSGSGTEFTLIISSLQSEDFAVYYCQQSNNWPFTFGPGTKVDIKR
B7: monoclonal antibody 9.7.2IF (antibody, human IgG2, kappa, V domains shown)
VH: B2 VH with I48V, G53S, H95Y, A99R, L100I
VL: B2 VL with N34I, K39R, F60S, V94T
B8: monoclonal antibody 9.7.2 (antibody, human IgG4, kappa, V domains shown)
VH: B2 VH with I48V, G53S, H95Y, A99R, L100I
VL: B2 VL with N34I, K39R, F60L, G66E, V94T
B9: monoclonal antibody 9.14.4I (antibody, human IgG2, kappa)
heavy: QVQLVESGGGLVKPGGSLRLSCAASGFTFSDYYMSWIRQAPGKGLEWVSYISSSGSTIYYADSVKGRFTISRDNAKNSLYLQMNSLRAEDTAVYYCARGLTGDYWGQGTLVTVSSASTKGPSVFPLAPCSRSTSESTAALGCLVKDYFPEPVTVSWNSGALTSGVHTFPAVLQSSGLYSLSSVVTVPSSNFGTQTYTCNVDHKPSNTKVDKTVERKCCVECPPCPAPPVAGPSVFLFPPKPKDTLMISRTPEVTCVVVDVSHEDPEVQFNWYVDGVEVHNAKTKPREEQFNSTFRVVSVLTVVHQDWLNGKEYKCKVSNKGLPAPIEKTISKTKGQPREPQVYTLPPSREEMTKNQVSLTCLVKGFYPSDIAVEWESNGQPENNYKTTPPMLDSDGSFFLYSKLTVDKSRWQQGNVFSCSVMHEALHNHYTQKSLSLSPGK
light: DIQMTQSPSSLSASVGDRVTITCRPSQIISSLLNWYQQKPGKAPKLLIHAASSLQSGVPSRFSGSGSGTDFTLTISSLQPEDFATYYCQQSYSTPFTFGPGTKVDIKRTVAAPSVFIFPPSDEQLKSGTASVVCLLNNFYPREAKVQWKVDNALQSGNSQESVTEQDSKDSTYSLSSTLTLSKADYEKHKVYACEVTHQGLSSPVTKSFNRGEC
B10: monoclonal antibody 9.14.4 (antibody, human IgG4, kappa)
heavy: QVQLVESGGGLVKPGGSLRLSCAASGFTFSDYYMSWIRQAPGKGLEWVSYISSSGSTIYYADSVKGRFTISRDNAKNSLYLQMNSLRAEDTAVYYCARGLTGDYWGQGTLVTVSSASTKGPSVFPLAPCSRSTSESTAALGCLVKDYFPEPVTVSWNSGALTSGVHTFPAVLQSSGLYSLSSVVTVPSSSLGTKTYTCNVDHKPSNTKVDKRVESKYGPPCPSCPAPEFLGGPSVFLFPPKPKDTLMISRTPEVTCVVVDVSQEDPEVQFNWYVDGVEVHNAKTKPREEQFNSTYRVVSVLTVLHQDWLNGKEYKCKVSNKGLPSSIEKTISKAKGQPREPQVYTLPPSQEEMTKNQVSLTCLVKGFYPSDIAVEWESNGQPENNYKTTPPVLDSDGSFFLYSRLTVDKSRWQEGNVFSCSVMHEALHNHYTQKSLSLSPGK
light: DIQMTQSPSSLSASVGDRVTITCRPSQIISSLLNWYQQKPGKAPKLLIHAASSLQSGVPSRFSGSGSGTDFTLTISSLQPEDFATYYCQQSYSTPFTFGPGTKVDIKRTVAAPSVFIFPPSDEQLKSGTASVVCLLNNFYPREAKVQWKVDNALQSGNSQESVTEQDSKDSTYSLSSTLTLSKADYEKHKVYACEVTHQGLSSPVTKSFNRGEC
B11: monoclonal antibody 8.10.3 (antibody, human IgG2, kappa, V domains shown)
VH: EVQLVESGGGLVQPGGSLRLSCAASGFTFSSFSMTWVRQAPGKGLEWVSYISSRSSTISYADSVKGRFTISRDNAKNSLYLQMNSLRDEDTAVYYCARDPLLAGATFFDYWGQGTLVTVSS
VL: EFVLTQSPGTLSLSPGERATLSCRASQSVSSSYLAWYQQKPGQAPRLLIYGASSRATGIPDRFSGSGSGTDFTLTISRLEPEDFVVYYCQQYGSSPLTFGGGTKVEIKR
notes: Human antibody from hybridoma 8.10.3

Target: T1, human M-CSF
Test: receptor binding inhibition: antibody titrated against 125I-M-CSF binding to c-fms on cells (NIH-3T3/human c-fms or M-NSF-60)

Row | IC50 [nM] | Binder
1 | 0.308 | B1
2 | 0.747 | B2
3 | 0.445 | B3
4 | 0.07 | B4
5 | 0.157 | B5
6 | 1.25 | B6

Target: T1, human M-CSF
Test: SPR, BIACORE 3000, 25 C, M-CSF amine-coupled on B1 chip, antibody injected, 1:1 global fit

Row | Kd [nM] | Binder
7 | 4.7 | B1
8 | 0.4 | B4
9 | 5.4 | B5

Target: T1, human M-CSF
Test: cell-based or functional assay

Row | Human Whole Blood Monocyte Activation Assay [IC50, M] [M] | M-CSF Mouse Monocytic Cell Proliferation Assay [IC50, M] [M] | Binder
10 | 1.12e-09 | 7.37e-10 | B7
11 | 1.98e-10 | 7.37e-10 | B8
12 | 2.49e-10 | 2.02e-10 | B9
13 | 6.48e-10 | 2.02e-10 | B10
14 | 2.8e-10 | 4.13e-10 | B11

Target: T1, human M-CSF
Test: receptor binding inhibition: antibody titrated against 125I-M-CSF binding to c-fms on cells (NIH-3T3/human c-fms or M-NSF-60)
Remark: another data set of the same source

Row | IC50 [nM] | Binder
15 | 0.529 | B7
16 | 0.006 | B8
17 | 0.297 | B9
18 | 0.041 | B10
19 | 1.5 | B11

Target: T1, human M-CSF
Test: SPR, BIACORE 3000, 25 C, M-CSF amine-coupled on CM5 chip, antibody injected, 1:1 global fit

Row | Kd [nM] | koff [s⁻¹] | Binder
20 | 0.0133 | 1.03e-06 | B2
21 | 1.33 | 7.3e-05 | B3
22 | 0.02 | 1.7e-05 | B6

Target: T1, human M-CSF
Test: cell-based or functional assay
Remark: another data set of the same source

Row | Human Whole Blood Monocyte Activation Assay [IC50, M] [M] | M-CSF Mouse Monocytic Cell Proliferation Assay [IC50, M] [M] | Binder
23 | 7.15e-10 | 1.96e-10 | B1
24 | 8.67e-10 | 1.86e-10 | B2
25 | 5.8e-10 | 2.31e-10 | B3
26 | 8.6e-11 | 7.3e-11 | B4
27 | 8.85e-10 | 1.99e-10 | B5
28 | 1.53e-10 | 7.44e-10 | B6
